One assay has as its target T1, mouse IL-23 (mouse, UniProt P43432 23-335; Q9EQ14 22-196).
T1 sequence 1: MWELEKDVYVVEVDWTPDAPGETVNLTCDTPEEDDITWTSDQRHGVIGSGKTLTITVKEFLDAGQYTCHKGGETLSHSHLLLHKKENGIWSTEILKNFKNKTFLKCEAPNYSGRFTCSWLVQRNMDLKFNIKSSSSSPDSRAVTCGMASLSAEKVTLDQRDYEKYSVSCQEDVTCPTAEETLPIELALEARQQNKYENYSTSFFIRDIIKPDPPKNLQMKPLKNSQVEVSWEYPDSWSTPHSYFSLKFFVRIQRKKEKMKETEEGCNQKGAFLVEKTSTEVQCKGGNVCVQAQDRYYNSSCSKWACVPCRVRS
T1 sequence 2: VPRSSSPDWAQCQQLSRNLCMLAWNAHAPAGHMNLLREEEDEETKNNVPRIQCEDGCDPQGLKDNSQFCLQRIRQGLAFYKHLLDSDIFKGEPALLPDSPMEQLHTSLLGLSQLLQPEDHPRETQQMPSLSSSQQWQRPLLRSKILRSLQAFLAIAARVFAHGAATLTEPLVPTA
Put plainly: SPR, antibody captured by anti-human Fc, cytokine injected. As to the method:
(§1) In order to determine binding to TL1A, kinetic assays were conducted at 37° C. using a collection rate of 10 Hz on a Biacore™ T200 instrument (GE Healthcare). […] For the analysis of the p40 binding arm, kinetic assays were conducted at 37° C. using a collection rate of 10 Hz on a Biacore™ 8 K+ instrument (GE Healthcare).
(In general: Surface plasmon resonance follows binding to a sensor surface in real time, without labels.)

For another assay, the target named is T2, rabbit IL-12 (rabbit).
T2 chain 1: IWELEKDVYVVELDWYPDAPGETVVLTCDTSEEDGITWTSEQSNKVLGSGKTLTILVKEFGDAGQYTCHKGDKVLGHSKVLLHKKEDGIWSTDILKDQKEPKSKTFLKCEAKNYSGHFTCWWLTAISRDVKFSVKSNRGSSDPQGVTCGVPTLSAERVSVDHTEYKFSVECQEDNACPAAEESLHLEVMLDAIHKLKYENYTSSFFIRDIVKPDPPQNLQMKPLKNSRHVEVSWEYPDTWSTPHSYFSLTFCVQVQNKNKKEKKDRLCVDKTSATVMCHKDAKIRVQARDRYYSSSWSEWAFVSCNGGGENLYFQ
T2 chain 2: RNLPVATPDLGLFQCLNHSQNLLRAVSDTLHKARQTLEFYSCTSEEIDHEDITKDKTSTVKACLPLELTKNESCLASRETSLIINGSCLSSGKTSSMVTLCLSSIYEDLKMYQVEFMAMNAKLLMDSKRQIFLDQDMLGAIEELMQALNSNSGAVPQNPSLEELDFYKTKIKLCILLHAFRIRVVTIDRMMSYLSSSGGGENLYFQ
The description is as above. As to the method:
as §1

The next assay addresses T3, rabbit IL-23 (rabbit).
T3 chain 1: T2 chain 1
T3 chain 2: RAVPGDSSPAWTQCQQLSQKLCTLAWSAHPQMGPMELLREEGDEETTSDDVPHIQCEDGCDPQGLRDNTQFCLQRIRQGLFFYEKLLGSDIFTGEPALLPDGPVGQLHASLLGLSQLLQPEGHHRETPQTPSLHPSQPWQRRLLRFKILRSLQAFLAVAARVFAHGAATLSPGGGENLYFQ
The assay is described as above. As to the method: as §1

The target in the next assay is T4, rat IL-12 (rat, UniProt P43432 23-335; Q9R103 23-215, limits assumed).
T4 chain 1: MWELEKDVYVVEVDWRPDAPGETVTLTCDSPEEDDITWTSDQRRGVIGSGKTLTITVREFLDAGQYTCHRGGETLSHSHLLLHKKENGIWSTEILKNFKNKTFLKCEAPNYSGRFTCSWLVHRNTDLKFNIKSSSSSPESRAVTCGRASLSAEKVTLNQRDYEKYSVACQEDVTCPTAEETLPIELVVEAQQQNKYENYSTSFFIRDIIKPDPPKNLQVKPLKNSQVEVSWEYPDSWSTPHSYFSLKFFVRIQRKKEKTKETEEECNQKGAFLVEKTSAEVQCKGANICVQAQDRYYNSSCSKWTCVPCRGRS
T4 chain 2: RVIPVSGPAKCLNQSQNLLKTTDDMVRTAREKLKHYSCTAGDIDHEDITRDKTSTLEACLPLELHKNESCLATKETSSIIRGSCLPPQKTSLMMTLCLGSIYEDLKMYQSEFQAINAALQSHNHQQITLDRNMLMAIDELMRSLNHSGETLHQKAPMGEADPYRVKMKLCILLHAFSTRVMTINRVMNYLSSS
The description is as above. Here is the method: as §1

Another assay has as its target T5, rat IL-23 (rat, UniProt P43432 23-335; Q91Z84 22-196, limits assumed).
T5 chain 1: T4 chain 1
T5 chain 2: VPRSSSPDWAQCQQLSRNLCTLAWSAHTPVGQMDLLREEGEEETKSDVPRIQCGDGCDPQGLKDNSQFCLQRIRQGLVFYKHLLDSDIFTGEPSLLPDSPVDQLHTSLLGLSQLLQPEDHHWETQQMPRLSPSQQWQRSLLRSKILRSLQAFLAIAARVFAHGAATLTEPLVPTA
The assay is described as above. As to the method: as §1

The target of a further assay is T6, mouse IL-12 (mouse, UniProt P43432 23-335; P43431 23-215).
T6 sequence 1: T1 sequence 1
T6 sequence 2: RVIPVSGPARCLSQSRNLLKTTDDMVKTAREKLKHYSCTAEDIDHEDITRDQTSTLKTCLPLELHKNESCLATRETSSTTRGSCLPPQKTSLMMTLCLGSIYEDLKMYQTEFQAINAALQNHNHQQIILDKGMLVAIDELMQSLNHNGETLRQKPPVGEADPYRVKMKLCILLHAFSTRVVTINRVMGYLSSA
The description is as above. As to the method:
as §1

The target in a further assay is T7, recombinant rat TL1A (rat, UniProt Q8K3Y7 76-252).
T7 sequence: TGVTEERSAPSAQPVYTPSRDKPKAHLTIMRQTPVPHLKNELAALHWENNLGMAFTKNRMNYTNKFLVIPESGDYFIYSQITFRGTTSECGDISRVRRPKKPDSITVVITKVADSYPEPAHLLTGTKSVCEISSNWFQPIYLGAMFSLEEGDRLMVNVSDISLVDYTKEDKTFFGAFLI
Put plainly: SPR, Biacore T200, 37 C; biotinylated TL1A captured on Biotin CAPture chip, antibody injected; KD value is approximate. As to the method: as §1

In another assay the target is T8, recombinant human TL1A (human, UniProt O95150 71-251).
T8 chain: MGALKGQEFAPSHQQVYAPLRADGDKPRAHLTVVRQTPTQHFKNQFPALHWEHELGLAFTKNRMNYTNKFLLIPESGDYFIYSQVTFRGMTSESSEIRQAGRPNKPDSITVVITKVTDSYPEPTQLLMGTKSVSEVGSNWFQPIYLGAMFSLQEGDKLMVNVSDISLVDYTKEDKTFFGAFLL
Put plainly: cell-based or functional assay.

This note sets out measurements from patent US20240059799A1 (Pfizer, published 2024).

B1: p40TL1A-0033 (bispecific antibody, human IgG1, kappa)
chain 1: not shown
chain 2: QVQLVQSGAEVKKPGASVKVSCKASGYDYTYYGISWVRQAPGQGLEWMGWISTYNTGTHYAPSLQGRVTMTTDTSTSTAYMELRSLRSDDTAVYYCARESYYGSGAFRGGMDVWGQGTTVTVSSASTKGPSVFPLAPSSKSTSGGTAALGCLVKDYFPEPVTVSWNSGALTSGVHTFPAVLQSSGLYSLSSVVTVPSSSLGTQTYICNVNHKPSNTKVDKKVEPKSC
heavy: EVQLVQSGAEVKKPGESLKISCKGSGYSFTTYWLGWVRQMPGKGLDWIGIMSPVDSDIRYSPSFQGQVTMSVDKSITTAYLQWNSLKASDTAMYYCARRRPGQGYFDFWGQGTLVTVSSASTKGPSVFPLAPSSKSTSGGTAALGCLVKDYFPEPVTVSWNSGALTSGVHTFPAVLQSSGLYSLSSVVTVPSSSLGTQTYICNVNHKPSNTKVDKKVEPKSCDKTHTCPPCPAPEAAGAPSVFLFPPKPKDTLMISRTPEVTCVVVDVSHEDPEVKFNWYVDGVEVHNAKTKPREEQYNSTYRVVSVLTVLHQDWLNGKEYKCKVSNKALPAPIEKTISKAKGQPREPQVCTLPPSREEMTKNQVSLWCLVKGFYPSDIAVEWESNGQPENNYKTTPPVLDSDGSFFLYSKLTVDKSRWQQGNVFSCSVLHEALHSHYTQKSLSLSPGK
light: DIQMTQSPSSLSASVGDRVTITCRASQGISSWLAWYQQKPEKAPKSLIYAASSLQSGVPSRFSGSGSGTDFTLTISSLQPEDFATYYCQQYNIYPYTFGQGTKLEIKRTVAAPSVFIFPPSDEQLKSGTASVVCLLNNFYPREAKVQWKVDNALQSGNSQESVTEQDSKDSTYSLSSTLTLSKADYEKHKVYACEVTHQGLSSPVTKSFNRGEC
notes: KiH modified-Fd bispecific: TL1A VL-CL-Fc (hole), TL1A mFd, p40 HC (knob), p40 LC; LS
Turning to B1, the binding result with mouse IL-23, in the assay with rabbit IL-12, in the assay with rabbit IL-23, in the assay with rat IL-12, with rat IL-23 and with mouse IL-12 was “no binding (tested: 200 nM)” throughout.

B2: p40TL1A-0033 bispecific antibody (bispecific antibody, human IgG1, kappa)
heavy: B1 heavy
light: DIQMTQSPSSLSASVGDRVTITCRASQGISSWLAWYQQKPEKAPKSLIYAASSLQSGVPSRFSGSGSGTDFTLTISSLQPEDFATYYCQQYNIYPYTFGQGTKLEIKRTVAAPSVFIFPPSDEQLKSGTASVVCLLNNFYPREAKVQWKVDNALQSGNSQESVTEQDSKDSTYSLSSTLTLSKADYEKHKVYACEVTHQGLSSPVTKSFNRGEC
chain 1: not shown
chain 2: B1 chain 2
notes: Single cell KiH, modified Fd format; IgG1 effector-function-minimized Fc with LS mutations
Turning to B2, in the assay with recombinant rat TL1A, the Kd was ~1080 nM. In the assay with recombinant human TL1A, the “NF-κB assay IC50 (TF-1 reporter cells, 384-well)” value was determined as 0.31 nM.

As usually defined, the Kd is the concentration at which binding is half-saturated.
